From patent US20190367592A1 (AC IMMUNE, published 2019) come the findings set out here.

Substitutions are numbered along the chain they refer to.

Experiment [1] has as its target T1, recombinant human Tau monomer, 2N4R isoform (amino acids 2-441) (human, UniProt P10636-8 2-441).
T1 construct: range 2-441; N-terminal His-tag removed with TEV protease; also called monomeric Tau
As to the kind of experiment: SPR screen, hIgG captured, Tau monomer analyte. The source says: Antibody 125B11-H3 was humanized onto VH3 and Vκ1 consensus frameworks. The heavy chain graft included murine residues at position 78 (Kabat numbering system). The Vκ1 graft included murine residues in framework positions 43 and 87. The light chain of 113F5-F7 was also humanized onto the Vκ1 framework, with additional murine residues at framework positions 43 and 87. Humanized variant heavy chains (125B11) and light chains (125B11 and 113F5-F7) were co-transfected in multiple combinations and purified in 96-well format as described above. Humanized variants were then screened for affinity for human Tau monomer using the Biacore human IgG capture kit, a Series S CM5 chip and a Biacore T200 instrument. Antibodies were diluted to 2 μg/ml and captured for 15 seconds at 10 μl/min. Association and dissociation of 0, 100 and 500 nM human Tau monomer in HBSP was monitored for 180s and 300s respectively at a flow rate of 40 μl/min. A 1:1 binding model was applied to the results (Table 9).
Variants hu125B11.v17 (HC3+LC1), hu125B11.v26 (HC4+LC2) and hu125B 11.v28 (HC4+LC4) were selected for high-resolution kinetic analysis based on the affinity screen (Table 10). Antibody 94B2-C1 was humanized onto VH1 and Vx2 frameworks. The heavy chain graft also included murine residues at position 28, 29, 67, 69, 71, and 73 (Kabat numbering system). The Vκ2 graft also included murine residues in framework positions 2, 36, and 46. […] Variant hu94B2.v105 (heavy chain variant 94B2.HCl, light chain variant 94B2.LC13) was selected for detailed SPR characterization (Table 11).

In experiment [2] the target is T1, recombinant human Tau monomer, 2N4R …. Description: SPR; Normalized Rmax post-stress (2 weeks 40 C) / pre-stress. The method in brief: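 SPR read-out: Rmax divided by captured-IgG Ligand Level gives Normalized Rmax; post-stress (40° C., 2 weeks) over pre-stress (~4° C.) value is the Stability Index. Tau analyte at 0, 26.5, 265 nM, 180 s association, 300 s dissociation, multi-cycle kinetics, 1:1 model.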
In general terms: In SPR one partner is held on a chip, and binding of the other changes the refractive index at the surface.

The target is the same in experiment [3]. As to the kind of experiment: SPR, captured IgG, Tau monomer analyte, 1:1 model; fit-quality column: -. As to the method: Briefly, IgGs in 1 mL culuture were captured using tip columns that were custom packed with 20 μL MabSelect SuRe resin (Glygen Corp & GE Healthcare). After washing with 1×PBS pH 7.4, IgGs were eluted into 160 μL of 50 mM phosphoric acid pH 3 and neutralized with 12 μL of 20×PBS pH 11. MabSelect SuRe tip columns were stripped in 0.1 M NaOH and regenerated with 1×PBS pH 7.4 for consecutive use of up to 15 times. Purified antibodies in 96-well format were normalized to 0.1 mg/ml using a Hamilton Star liquid handling robot. The “pre-stress” samples were kept at approximately 4° C. and the “post-stress” samples were incubated at 40° C. for two weeks in a PCR machine. Functional stability of the variants was compared by running surface plasmon resonance kinetics experiments with the “pre-stress” and “post-stress” antibody preps. The antibodies were assessed using a human antibody capture CM5 Series S chip generated using the GE Biacore human IgG capture kit and a Biacore T200 instrument. Antibodies diluted to 2 μg/ml were immobilized using a 15 second injection time and 10 μl/min flow rate. Binding to Tau monomer at 0 nM, 26.5 nM and 265 nM, at 25° C., using a flow rate of 40 μl/min, was monitored for a 180 second association phase followed by a 300 second dissociation phase. Samples were run in 10 mM HEPES pH7.4, 150 mM NaCl, 0.05% Tween 20 (HBSP) using a multi-cycle kinetics format. Data was analyzed using BIAevaluation software, fitting a 1:1 binding model. The resulting affinity (KD) values are shown in FIG. 8A-D. A Stability Index was also calculated, using the rationale that affinity-compromised antibodies (due for example to deamidation of key residues) are expected to contribute equally to the IgG capture level (“Ligand Level”) but to contribute less to the measured Tau binding, and that this would be reflected in the experimentally derived value for Rmax. To account for variations in the amount of each antibody captured, Rmax was normalized for the antibody capture level (as measured by “Ligand Level”, Response Units immobilized during antibody capture). Thus Normalized Rmax is calculated as the experimental Rmax (units=RU) divided by the “Ligand Level” (Evaluation output representing the RU captured during the hIgG capture step, units=RU), and Stability Index is calculated here as Normalized Rmax (post-stress) divided by Normalized Rmax (pre-stress).

T1 sequence (P10636 other isoform, or with tags, fused parts or gaps limits assumed): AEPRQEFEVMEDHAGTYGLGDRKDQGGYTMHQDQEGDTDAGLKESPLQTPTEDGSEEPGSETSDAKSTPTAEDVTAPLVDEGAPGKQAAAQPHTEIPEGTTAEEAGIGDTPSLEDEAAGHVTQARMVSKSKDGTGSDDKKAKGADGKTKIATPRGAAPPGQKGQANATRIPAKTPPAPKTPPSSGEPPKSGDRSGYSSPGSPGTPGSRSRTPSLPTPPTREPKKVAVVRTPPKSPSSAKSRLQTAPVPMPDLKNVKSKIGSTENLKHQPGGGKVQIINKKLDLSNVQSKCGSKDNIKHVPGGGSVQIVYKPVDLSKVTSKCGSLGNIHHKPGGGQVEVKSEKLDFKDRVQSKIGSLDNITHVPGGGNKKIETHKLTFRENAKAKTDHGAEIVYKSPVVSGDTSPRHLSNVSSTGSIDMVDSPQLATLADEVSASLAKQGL

B1: hu94B2 HC7 + LC9 (antibody, V domains shown)
VH: EVQLVQSGAEVKKPGASVKVSCKASGYSLTGYTMNWVRQAPGQGLEWIGLISPYNGVTSYNQKFKGRVTITRDKSTSTAYLELSSLRSEDTAVYYCARQGAYWGQGTLVTVSS
VL: DVVMTQTPLSLPVTPGQPASISCKSSQSLLDSDGKTYLNWLLQKPGQSPQRLIYLVSKLDSGVPDRFSGSGSGTDFTLKISRVEAEDVGVYYCWQGTHFPWTFGQGTKVEIK
A word on the Kd: it is the constant that tells how readily two partners part at equilibrium. Turning to B1, in experiment [1], the Kd was 52.9 nM.

B2: hu94B2 HC8 + LC15 (antibody, V domains shown)
VH: B1 VH with R72V, K74T
VL: B1 VL with V2I, L41Y
Turning to B2, the Kd in experiment [1] came to 51.5 nM.

B3: hu94B2 HC8 + LC13 (antibody, V domains shown)
VH: B1 VH with R72V, K74T
VL: B1 VL with V2I
For B3, the Kd in experiment [1] came to 2.4 nM.

B4: hu94B2 HC8 + LC11 (antibody, V domains shown)
VH: B1 VH with R72V, K74T
VL: B1 VL with L41Y
With B4, in experiment [1], the Kd was determined as 44.3 nM.

B5: hu94B2 HC8 + LC9 (antibody, V domains shown)
VH: B1 VH with R72V, K74T
VL: B1 VL
Turning to B5, the Kd in experiment [1] amounted to 1 nM.

B6: hu94B2 HC7 + LC13 (antibody, V domains shown)
VH: B1 VH
VL: B1 VL with V2I
For B6, the Kd in experiment [1] came to 57.8 nM.

B7: hu37D3-H9.v5.4 (antibody, V domains shown)
VH: EVQLVESGGGLVQPGGSLRLSCAASGLIFRSYGMSWVRQAPGKGLEWVATINSGGTYTYYPDSVKGRFTISRDNSKNTLYLQMNSLRAEDTAVYYCANSYSGAMDYWGQGTLVTVSS
VL: EDVLTQTPLSLPVTPGQPASISCRSSQSIVHSQGNTYFEWYLQKPGQSPQLLIYKVSNRFSGVPDRFSGSGSGTDFTLKISRVEAEDVGVYYCFQGSLVPWTFGQGTKVEIK
In the case of B7, in experiment [2], the “Stability Index” value amounted to 78%. Moreover, the Kd in experiment [3] was 36.1 nM.

B8: hu37D3.v28.E3 (antibody, V domains shown)
VH: B7 VH
VL: B7 VL with E1D, H31D, Q33D
Consider B8, for which the “Stability Index” value in experiment [2] came to 364%. Moreover, the Kd in experiment [3] was 1.1 nM.

B9: hu37D3-H9.v31.1 (antibody, V domains shown)
VH: B7 VH
VL: B7 VL with E1D, Q33N, G34A, N35G
On to B9, for which, in experiment [2], the “Stability Index” value was determined as 72%. Also, the Kd in experiment [3] was determined as 41.2 nM.

B10: hu37D3-H9.v30.6 (antibody, V domains shown)
VH: B7 VH
VL: B7 VL with E1D, Q33P
Take B10: the “Stability Index” value in experiment [2] worked out at 270%. Moreover, the Kd in experiment [3] stood at 19.1 nM.

B11: hu37D3-H9.v5.5 (antibody, V domains shown)
VH: B7 VH
VL: B7 VL with Q33E
For the molecule B11, in experiment [2], the “Stability Index” value is 75%. In experiment [3], the Kd was 64.5 nM.

B12: hu37D3.v28.B8 (antibody, V domains shown)
VH: B7 VH
VL: B7 VL with E1D, Q33E, Y37R
B12: the “Stability Index” value in experiment [2] was 456%. Further, the Kd in experiment [3] stood at 1.8 nM.

B13: hu37D3-H9.v31.14 (antibody, V domains shown)
VH: B7 VH
VL: B7 VL with E1D, Q33N, G34A, T36R
For the molecule B13, the “Stability Index” value in experiment [2] was determined as 86%. Besides, the Kd in experiment [3] is 35.5 nM.

B14: hu37D3.v28.B4 (antibody, V domains shown)
VH: B7 VH
VL: B7 VL with E1D, Y37H
With B14, the “Stability Index” value in experiment [2] was found to be 288%. Besides, the equilibrium dissociation constant (Kd) in experiment [3] came out at 10.5 nM.

B15: hu37D3.v28.51 (antibody, V domains shown)
VH: B7 VH
VL: B7 VL with Q33H
Take B15: the “Stability Index” value in experiment [2] was 74%. Further, the Kd in experiment [3] worked out at 35.6 nM.

B16: hu37D3-H9.v31.10 (antibody, V domains shown)
VH: B7 VH
VL: B7 VL with E1D, Q33N, G34A, T36P
Consider B16, for which the “Stability Index” value in experiment [2] worked out at 261%. For the same molecule, the Kd in experiment [3] worked out at 5.5 nM.

B17: hu37D3.v28.B7 (antibody, V domains shown)
VH: B7 VH
VL: B7 VL with E1D, Q33D, Y37K
In the case of B17, the “Stability Index” value in experiment [2] worked out at 607%. The Kd in experiment [3] worked out at 4.1 nM.

B18: hu37D3.v28.B3 (antibody, V domains shown)
VH: B7 VH
VL: B7 VL with E1D, Y37W
With B18, in experiment [2], the “Stability Index” value turned out to be 208%. Besides, the Kd in experiment [3] is 0.4 nM.

B19: hu37D3-H9.v31.11 (antibody, V domains shown)
VH: B7 VH
VL: B7 VL with E1D, Q33N, G34A, T36F
Regarding B19, in experiment [2], the “Stability Index” value is 126%. Also, the Kd in experiment [3] came out at 22.7 nM.

B20: hu37D3-H9.v30.7 (antibody, V domains shown)
VH: B7 VH
VL: B7 VL with E1D, Q33F
Take B20: the “Stability Index” value in experiment [2] is 93%. In addition, the Kd in experiment [3] was found to be 34.9 nM.

B21: hu37D3-H9.v31.12 (antibody, V domains shown)
VH: B7 VH
VL: B7 VL with E1D, Q33N, G34A, T36Y
Take B21: the “Stability Index” value in experiment [2] amounted to 99%. Moreover, in experiment [3], the Kd stood at 41.6 nM.

B22: hu37D3-H9.v5.6 (antibody, V domains shown)
VH: B7 VH
VL: B7 VL with Q33A
B22: the “Stability Index” value in experiment [2] came out at 67%. Further, in experiment [3], the Kd worked out at 36.6 nM.

B23: hu37D3-H9.v31.13 (antibody, V domains shown)
VH: B7 VH
VL: B7 VL with E1D, Q33N, G34A, T36N
Take B23: in experiment [2], the “Stability Index” value came to 83%. Moreover, in experiment [3], the Kd was found to be 48.1 nM.

B24: hu37D3-H9.v30.8 (antibody, V domains shown)
VH: B7 VH
VL: B7 VL with E1D, Q33Y
B24: in experiment [2], the “Stability Index” value was 105%. For the same molecule, the Kd in experiment [3] was found to be 31.4 nM.

B25: hu37D3-H9.v31.4 (antibody, V domains shown)
VH: B7 VH
VL: B7 VL with E1D, Q33N, G34A, N35P
Turning to B25, in experiment [2], the “Stability Index” value turned out to be 533%. Besides, the Kd in experiment [3] amounted to 0.8 nM.
